According to publication PMC6879610 (2019):

B1: H4K3_5M Fab (Fab, V domains shown)
VH: KVQLVQSGAELKKPWSSVRVSCKASGGEPESYAFNWVRQAPGQRLEWLGGIVPLVSSTNYAQRFRGRVTISADPETSTVYLEMTGLTSADTAVYFCAREGEGWFGRPLRAFEFWGQGTLVTVST
VL: EIVLTQSPGTFALSPGERATLSCRASQSVSGGALAWYQQKAGQAPRLLIYDTSGRATGVPGRFSGSGSETDFSLTISRLEPEDFAVYYCQQYGTSQSTFGQGTRLETR
B2: H4K3_SFS28EPE Fab (Fab, V domains shown)
VH: KVQLVQSGAELKKPWSSVRVSCKASGGEPESYAFNWVRQAPGQRLEWLGGIVPLVSSTNYAQRFRGRVTISADRSTSTVYLEMTGLTSADTAVYFCAREGEGWFGRPLRAFEFWGQGTLVTVST
VL: EIVLTQSPGTFALSPGERATLSCRASQSVSGGALAWYQQKAGQAPRLLIYDTSGRATGVPGRFSGSGSETDFSLTISRLEPEDFAVYYCQQYGTSQSTFGQGTRLETR
B3: H4K3_RS73PE Fab (Fab, V domains shown)
VH: KVQLVQSGAELKKPWSSVRVSCKASGGSFSSYAFNWVRQAPGQRLEWLGGIVPLVSSTNYAQRFRGRVTISADPETSTVYLEMTGLTSADTAVYFCAREGEGWFGRPLRAFEFWGQGTLVTVST
VL: EIVLTQSPGTFALSPGERATLSCRASQSVSGGALAWYQQKAGQAPRLLIYDTSGRATGVPGRFSGSGSETDFSLTISRLEPEDFAVYYCQQYGTSQSTFGQGTRLETR
B4: PGZL1.H4K3 IgG (antibody, V domains shown)
VH: KVQLVQSGAELKKPWSSVRVSCKASGGSFSSYAFNWVRQAPGQRLEWLGGIVPLVSSTNYAQRFRGRVTISADRSTSTVYLEMTGLTSADTAVYFCAREGEGWFGRPLRAFEFWGQGTLVTVST
VL: EIVLTQSPGTFALSPGERATLSCRASQSVSGGALAWYQQKAGQAPRLLIYGTSGRATGVPGRFSGSGSETDFSLTISRLEPEDFAVYYCQQYGTSQSTFGQGTRLETR
B5: H4K3_5M IgG (antibody, V domains shown)
VH: KVQLVQSGAELKKPWSSVRVSCKASGGEPESYAFNWVRQAPGQRLEWLGGIVPLVSSTNYAQRFRGRVTISADPETSTVYLEMTGLTSADTAVYFCAREGEGWFGRPLRAFEFWGQGTLVTVST
VL: EIVLTQSPGTFALSPGERATLSCRASQSVSGGALAWYQQKAGQAPRLLIYDTSGRATGVPGRFSGSGSETDFSLTISRLEPEDFAVYYCQQYGTSQSTFGQGTRLETR
B6: H4K3_SFS28EPE IgG (antibody, V domains shown)
VH: KVQLVQSGAELKKPWSSVRVSCKASGGEPESYAFNWVRQAPGQRLEWLGGIVPLVSSTNYAQRFRGRVTISADRSTSTVYLEMTGLTSADTAVYFCAREGEGWFGRPLRAFEFWGQGTLVTVST
VL: EIVLTQSPGTFALSPGERATLSCRASQSVSGGALAWYQQKAGQAPRLLIYDTSGRATGVPGRFSGSGSETDFSLTISRLEPEDFAVYYCQQYGTSQSTFGQGTRLETR
B7: H4K3_RS73PE IgG (antibody, V domains shown)
VH: KVQLVQSGAELKKPWSSVRVSCKASGGSFSSYAFNWVRQAPGQRLEWLGGIVPLVSSTNYAQRFRGRVTISADPETSTVYLEMTGLTSADTAVYFCAREGEGWFGRPLRAFEFWGQGTLVTVST
VL: EIVLTQSPGTFALSPGERATLSCRASQSVSGGALAWYQQKAGQAPRLLIYDTSGRATGVPGRFSGSGSETDFSLTISRLEPEDFAVYYCQQYGTSQSTFGQGTRLETR

Biological target: T1, MPER peptide PDT-081 (HIV-1, biotin at the C-terminus)
T1 chain: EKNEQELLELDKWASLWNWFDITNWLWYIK
Experiment: BLI

In order of falling koff:
1. B1  0.00067 s⁻¹
2. B2  0.00054 s⁻¹
3. B3  0.00051 s⁻¹

Biological target: T1, MPER peptide PDT-081
Experiment: ELISA

In order of rising EC50:
1. B4  0.039 µg/mL
2. B6  0.076 µg/mL
3. B5  0.083 µg/mL
4. B7  0.09 µg/mL
